Data set [1] concerns the target 76_4 (designed UGT76G1 variant) (Stevia rebaudiana, UniProt Q6VAB4, L101F/S192K/R297W/V300K/S305P/G348P, form not given). As to conditions: 1 mM UDPG; 0-300 uM ST; ST to RebA conversion; 2 min time course.
Substrate in the data set “purified protein”: C=C1C[C@@]23CC[C@H]4[C@@](C)(CCC[C@@]4(C)C(=O)O[C@@H]4O[C@H](CO)[C@@H](O)[C@H](O)[C@H]4O)[C@@H]2CC[C@]1(O[C@@H]1O[C@H](CO)[C@@H](O)[C@H](O)[C@H]1O[C@@H]1O[C@H](CO)[C@@H](O)[C@H](O)[C@H]1O)C3
Nature of the data set: purified protein. As to conditions: 1 mM UDPG; 0-300 uM ST; ST to RebA conversion; 2 min time course.

76_4 (designed UGT76G1 variant), sequence (Q6VAB4 12-458 L101F/S192K/R297W/V300K/S305P/G348P, form open): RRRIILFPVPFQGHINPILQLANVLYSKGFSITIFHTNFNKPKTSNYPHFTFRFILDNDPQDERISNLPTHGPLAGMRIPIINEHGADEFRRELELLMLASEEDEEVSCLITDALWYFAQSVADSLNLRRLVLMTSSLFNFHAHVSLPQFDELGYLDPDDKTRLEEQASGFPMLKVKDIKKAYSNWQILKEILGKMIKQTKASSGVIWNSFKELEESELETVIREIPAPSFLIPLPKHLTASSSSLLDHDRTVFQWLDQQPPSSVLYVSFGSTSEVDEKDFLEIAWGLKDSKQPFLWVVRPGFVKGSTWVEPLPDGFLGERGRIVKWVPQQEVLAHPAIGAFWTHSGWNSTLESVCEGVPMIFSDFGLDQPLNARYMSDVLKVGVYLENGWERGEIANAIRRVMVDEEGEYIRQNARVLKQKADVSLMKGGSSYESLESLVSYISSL

Broadly, the Km is the concentration of substrate that gives half-maximal velocity. Take `C=C1C[C@@]23CC[C@H]4[C@@](C)(CCC[C@@]4(C)C(=O)O[C@@H]4O[C@H](CO)[C@@H](O)[C@H](O)[C@H]4O)[C@@H]2CC[C@]1(O[C@@H]1O[C@H](CO)[C@@H](O)[C@H](O)[C@H]1O[C@@H]1O[C@H](CO)[C@@H](O)[C@H](O)[C@H]1O)C3` [ST, stevioside]: the Michaelis-Menten constant (Km) in data set [1] was 34.5 ± 3 µM.

B1: UGT76G1 (WT) (Stevia rebaudiana) (protein)
chain: MENKTETTVRRRRRIILFPVPFQGHINPILQLANVLYSKGFSITIFHTNFNKPKTSNYPHFTFRFILDNDPQDERISNLPTHGPLAGMRIPIINEHGADELRRELELLMLASEEDEEVSCLITDALWYFAQSVADSLNLRRLVLMTSSLFNFHAHVSLPQFDELGYLDPDDKTRLEEQASGFPMLKVKDIKSAYSNWQILKEILGKMIKQTKASSGVIWNSFKELEESELETVIREIPAPSFLIPLPKHLTASSSSLLDHDRTVFQWLDQQPPSSVLYVSFGSTSEVDEKDFLEIARGLVDSKQSFLWVVRPGFVKGSTWVEPLPDGFLGERGRIVKWVPQQEVLAHGAIGAFWTHSGWNSTLESVCEGVPMIFSDFGLDQPLNARYMSDVLKVGVYLENGWERGEIANAIRRVMVDEEGEYIRQNARVLKQKADVSLMKGGSSYESLESLVSYISSL
In general, kcat refers to the maximal rate divided by the concentration of active sites. As to B1, in the data set “purified protein”, the Km is 92.0 ± 5.3 µM and the kcat was 0.288 ± 0.0267 s⁻¹.

The values above are taken from article PMC10700650, “Enhancing the thermostability and activity of glycosyltransferase UGT76G1 via computational design” (Communications Chemistry, 2023).
